Target: monomeric SARS-CoV-2 receptor binding domain (RBD) (SARS-CoV-2, UniProt P0DTC2)
Assay: ELISA

B1: DH1041 (ACE2 binding site-targeting RBD neutralizing antibody) (antibody, V domains shown)
VH: EVQLVESGGGLVQPGGSLRLSCAASGVTFSSYWMSWVRQAPGKGLEWVANIRQDGSEKYSVDSVKGRFTISRDNAKNSLYLQMNSLRAEDTAVYYCARARRADNSGYYGFHFDCWGQGTLVTVSS
VL: QSVLTQPPSVSGAPGQRVTISCTGSSSNIGAGYDVHWYQQLPGTAPKLLIYGNNNRPSGVPDRFSDSKSGTSASLAITRLQAEDEADYYCQSYDSSLSGWVFGGGTKLTVL
- binding result: binds

Reference: doi:10.1101/2021.02.17.431492 (bioRxiv, 2021)
